Experimental data taken from US20230035659A1, “Compositions and Methods for TTR Gene Editing and Treating ATTR Amyloidosis Comprising a Corticosteroid or Use Thereof” (Intellia Therapeutics, Inc., priority 2019, published 2023).
Strand notation (5' to 3'): a small letter for the sugar, then the base; units joined by * are phosphorothioate-linked, units joined directly phosphodiester-linked; [ ] holds rarer units or linkages, { } end groups; capitals alone tell only the bases. m = 2'-O-methyl; r = 2'-OH (RNA)

Legend:
[1] = tested on: TTR; assay: TTR editing in primary cyno hepatocytes treated with LNP formulated Spy Cas9 mRNA (SEQ ID NO: 2) and sgRNAs, 12.5 ng mRNA; assay type: cell-based, cynomolgus monkey; settings: LNP formulated Spy Cas9 mRNA (SEQ ID NO: 2) and cyno matched sgRNA, lysed 72 hours post treatment
Experimental: (§1) Primary liver hepatocytes. Primary human liver hepatocytes (PHH) and primary cynomolgus liver hepatocytes (PCH) (Gibco) were cultured per the manufacturer's protocol (Invitrogen, protocol 11.28.2012). In brief, the cells were thawed and resuspended in hepatocyte thawing medium with supplements (Gibco, Cat. CM7000) followed by centrifugation at 100 g for 10 minutes for human and 80 g for 4 minutes for cyno. The supernatant was discarded and the pelleted cells resuspended in hepatocyte plating medium plus supplement pack (Invitrogen, Cat. A1217601 and CM3000). Cells were counted and plated on Bio-coat collagen I coated 96-well plates (ThermoFisher, Cat. 877272) at a density of 33,000 cells/well for human or 60,000 cells/well for cyno (or 65,000 cells/well when assaying effects on TTR protein, described further below). Plated cells were allowed to settle and adhere for 6 or 24 hours in a tissue culture incubator at 37° C. and 5% CO2 atmosphere. After incubation cells were checked for monolayer formation and media was replaced with hepatocyte culture medium with serum-free supplement pack (Invitrogen, Cat. A1217601 and CM4000).
In general, the lipid nanoparticle components were dissolved in 100% ethanol with the lipid component of various molar ratios. The RNA cargos were dissolved in 25 mM citrate, 100 mM NaCl, pH 5.0, resulting in a concentration of RNA cargo of approximately 0.45 mg/mL. The LNPs were formulated with a lipid amine to RNA phosphate (N:P) molar ratio of about 4.5 or about 6, with the ratio of mRNA to gRNA at 1:1 by weight.
The LNPs were formed by microfluidic mixing of the lipid and RNA solutions using a Precision Nanosystems NanoAssemblr™ Benchtop Instrument, according to the manufacturer's protocol. A 2:1 ratio of aqueous to organic solvent was maintained during mixing using differential flow rates. […]
Additional PCR was performed per the manufacturer's protocols (Illumina) to add chemistry for sequencing. […] The reads were aligned to a reference genome (e.g., the human reference genome (hg38), the cynomologus reference genome (mf5), the rat reference genome (rn6), or the mouse reference genome (mm10)) after eliminating those having low quality scores. The resulting files containing the reads were mapped to the reference genome (BAM files), where reads that overlapped the target region of interest were selected and the number of wild type reads versus the number of reads which contain an insertion, substitution, or deletion was calculated.
The editing percentage (e.g., the “editing efficiency” or “percent editing” or “indel frequency”) is defined as the total number of sequence reads with insertions/deletions (“indels”) or substitutions over the total number of sequence reads, including wild type. […]

[2] = tested on: TTR; assay: TTR editing dose response (EC50, maximum editing) in primary human hepatocytes treated with LNP formulated U-depleted Spy Cas9 mRNA and sgRNAs; assay type: cell-based; settings: LNP with U-depleted Spy Cas9 mRNA and cyno specific sgRNA, 8 point 3-fold dose response starting at 300 ng mRNA, 72 hours
Experimental: as §1
(§2) For LNPs prepared using the cross-flow technique, the LNPs were formed by impinging jet mixing of the lipid in ethanol with two volumes of RNA solutions and one volume of water. The lipid in ethanol is mixed through a mixing cross with the two volumes of RNA solution. A fourth stream of water is mixed with the outlet stream of the cross through an inline tee. (See WO2016010840 FIG. 2.) The LNPs were held for 1 hour at room temperature, and further diluted with water (approximately 1:1 v/v). Diluted LNPs were concentrated using tangential flow filtration on a flat sheet cartridge (Sartorius, 100 kD MWCO) and then buffer exchanged by diafiltration into 50 mM Tris, 45 mM NaCl, 5% (w/v) sucrose, pH 7.5 (TSS). Alternatively, the final buffer exchange into TSS was completed with PD-10 desalting columns (GE). If required, formulations were concentrated by centrifugation with Amicon 100 kDa centrifugal filters (Millipore). The resulting mixture was then filtered using a 0.2 μm sterile filter. The final LNP was stored at 4° C. or −80° C. until further use.
(§3) Additional PCR was performed per the manufacturer's protocols (Illumina) to add chemistry for sequencing. The amplicons were sequenced on an Illumina MiSeq instrument. The reads were aligned to a reference genome (e.g., the human reference genome (hg38), the cynomologus reference genome (mf5), the rat reference genome (rn6), or the mouse reference genome (mm10)) after eliminating those having low quality scores. The resulting files containing the reads were mapped to the reference genome (BAM files), where reads that overlapped the target region of interest were selected and the number of wild type reads versus the number of reads which contain an insertion, substitution, or deletion was calculated.
(§4) The editing percentage (e.g., the “editing efficiency” or “percent editing” or “indel frequency”) is defined as the total number of sequence reads with insertions/deletions (“indels”) or substitutions over the total number of sequence reads, including wild type.
(§5) Lipid nanoparticle formulations of modified sgRNAs targeting human TTR and the cyno matched sgRNA sequences were tested on primary human hepatocytes and primary cyno hepatocytes in a dose response curve. Primary human and cyno hepatocytes were plated as described in Example 1. Both cell lines were incubated at 37° C., 5% CO2 for 24 hours prior to treatment with LNPs. The LNPs used in the experiments detailed in Tables 20-22 were prepared using the cross-flow procedure described above but purified using PD-10 columns (GE Healthcare Life Sciences) and concentrated using Amicon centrifugal filter units (Millipore Sigma), each containing the specified sgRNA and Cas9 mRNA (SEQ ID NO:1). […] LNPs were incubated in hepatocyte maintenance media containing 6% cyno serum at 37° C., 5% CO2 for 5 minutes. […]

[3] = tested on: TTR; assay: TTR editing dose response (EC50, maximum editing) in primary cyno hepatocytes treated with LNP formulated U-depleted Spy Cas9 mRNA and sgRNAs; assay type: cell-based, cynomolgus monkey
Experimental: as §1, §2, §3, §4, §5

B1: G000506: TTR Cyno specific sgRNA modified sequence, SEQ ID NO: 118; guide sequence of CR005366 (nucleic acid)
guide: mA*mU*mA*rCrCrArGrUrCrCrArGrCrGrArGrGrCrArGrGrUrUrUrUrArGrAmGmCmUmAmGmAmAmAmUmAmGmCrArArGrUrUrArArArArUrArArGrGrCrUrArGrUrCrCrGrUrUrArUrCrAmAmCmUmUmGmAmAmAmAmAmGmUmGmGmCmAmCmCmGmAmGmUmCmGmGmUmGmCmU*mU*mU*mU
12.5 ng mRNA, 3.9 nM sgRNA, Avg % Edit [1]: 60.13%
Max Editing [2]: 89.49%
Max Editing ([3]; LNP formulated U-depleted Spy Cas9 mRNA and cyno specific sgRNAs): 99.18%
Max Editing ([3]; LNP formulated U-depleted Spy Cas9 mRNA and human specific sgRNAs): 89.49%
